Blank lines part the entries; values can stand above or below the binder they belong to.
B1: TEAD4 YBD domain (217-434) with N-terminal SUMO and 6xHis tag (domain or fragment, human, UniProt Q15561 217-434, looked up)
chain: RSVASSKLWMLEFSAFLEQQQDPDTYNKHLFVHIGQSSPSYSDPYLEAVDIRQIYDKFPEKKGGLKDLFERGPSNAFFLVKFWADLNTNIEDEGSSFYGVSSQYESPENMIITCSTKVCSFGKQVVEKVETEYARYENGHYSYRIHRSPLCEYMINFIHKLKHLPEKYMMNSVLENFTILQVVTNRDTQETLLCIAYVFEVSASEHGAQHHIYRLVKE
notes: Detected in the pull-downs with an antibody against 6xHis; also called SUMO-TEAD4; SUMO-tagged TEAD4-YBD; source: Escherichia coli BL21 (DE3), purified (Ni-NTA, Superdex 200); not shown: SUMO, N-terminal, kept; His6, N-terminal, kept

How the values were obtained:
Conditions in all cases: both partners purified
MBP-NF2 (18-595) WT = target: T1, MBP-NF2 (18-595) WT (UniProt P35240 18-595); experiment: pull-down; MBP-NF2 bound to MBP resin in PBS 1 h at 4 °C, incubated with purified SUMO-TEAD4 in PBS 1 h at 4 °C, washed four times; SDS-PAGE and anti-6xHis blot
T1 construct: also called MBP-NF2 WT; MBP-NF2 FL; source: purified (amylose resin, Superdex 200); not shown: MBP, N-terminal, kept
T1 sequence (looked up): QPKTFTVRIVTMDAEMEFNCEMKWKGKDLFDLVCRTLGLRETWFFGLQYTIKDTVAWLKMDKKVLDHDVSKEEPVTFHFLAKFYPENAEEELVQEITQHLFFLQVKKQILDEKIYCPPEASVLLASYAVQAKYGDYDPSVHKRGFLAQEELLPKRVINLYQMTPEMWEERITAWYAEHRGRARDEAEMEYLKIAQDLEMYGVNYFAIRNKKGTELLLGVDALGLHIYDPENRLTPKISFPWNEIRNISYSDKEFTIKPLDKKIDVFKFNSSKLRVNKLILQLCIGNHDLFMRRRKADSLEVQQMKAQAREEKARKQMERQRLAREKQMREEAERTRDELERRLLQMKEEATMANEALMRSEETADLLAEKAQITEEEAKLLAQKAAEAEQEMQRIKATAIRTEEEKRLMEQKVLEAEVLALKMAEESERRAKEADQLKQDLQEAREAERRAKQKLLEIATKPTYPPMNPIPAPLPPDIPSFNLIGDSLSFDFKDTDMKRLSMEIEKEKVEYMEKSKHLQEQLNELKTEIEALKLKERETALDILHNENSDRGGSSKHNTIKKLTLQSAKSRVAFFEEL

MBP-NF2 A585W mutant = target: T2, MBP-NF2 A585W mutant (UniProt P35240 18-595, A585W); experiment: as above
T2 construct: source: purified as MBP-NF2; not shown: MBP, N-terminal, kept
T2 sequence (looked up): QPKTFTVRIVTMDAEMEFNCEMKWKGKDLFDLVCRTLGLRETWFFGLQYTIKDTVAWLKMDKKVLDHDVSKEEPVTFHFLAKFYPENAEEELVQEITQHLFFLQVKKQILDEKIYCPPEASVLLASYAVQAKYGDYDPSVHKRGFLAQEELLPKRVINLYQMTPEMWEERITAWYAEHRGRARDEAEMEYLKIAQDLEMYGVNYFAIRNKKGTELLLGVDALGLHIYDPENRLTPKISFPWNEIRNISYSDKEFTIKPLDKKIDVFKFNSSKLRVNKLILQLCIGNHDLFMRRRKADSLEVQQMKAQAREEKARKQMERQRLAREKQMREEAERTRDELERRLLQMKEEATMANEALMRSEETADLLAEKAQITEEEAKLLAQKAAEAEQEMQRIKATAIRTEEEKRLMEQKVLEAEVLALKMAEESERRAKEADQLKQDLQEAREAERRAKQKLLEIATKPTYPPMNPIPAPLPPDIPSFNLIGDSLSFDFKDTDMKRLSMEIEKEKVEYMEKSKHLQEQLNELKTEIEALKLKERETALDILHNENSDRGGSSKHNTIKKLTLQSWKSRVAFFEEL

[1] = target: T3, GST-NF2 N-terminal FERM domain (1-341 aa) (UniProt P35240 1-341); experiment: pull-down; GST-NF2 (full length, truncations) bound to GST resin in PBS 1 h at 4 °C, incubated with purified SUMO-TEAD4 in PBS 1 h at 4 °C, washed four times; SDS-PAGE and anti-6xHis blot; in Figure 2C with or without co-incubated FERM domain
T3 construct: also called GST-NF2-FERM WT
T3 sequence (looked up): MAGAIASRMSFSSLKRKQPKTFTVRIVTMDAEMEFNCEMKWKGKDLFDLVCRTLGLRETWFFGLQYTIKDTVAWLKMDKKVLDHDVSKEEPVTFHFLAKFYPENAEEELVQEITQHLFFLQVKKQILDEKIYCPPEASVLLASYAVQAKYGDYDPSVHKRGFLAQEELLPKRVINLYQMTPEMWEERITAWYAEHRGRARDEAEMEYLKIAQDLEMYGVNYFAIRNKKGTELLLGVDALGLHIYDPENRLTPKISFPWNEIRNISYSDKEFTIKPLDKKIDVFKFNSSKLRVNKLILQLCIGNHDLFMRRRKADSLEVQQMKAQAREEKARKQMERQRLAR

[2] = target: T4, full-length NF2 with GST tag (UniProt P35240 1-595); experiment: as above
T4 construct: NF2 (Merlin), full length; also called GST-NF2; GST-NF2-FL; source: Escherichia coli, purified
T4 sequence (looked up): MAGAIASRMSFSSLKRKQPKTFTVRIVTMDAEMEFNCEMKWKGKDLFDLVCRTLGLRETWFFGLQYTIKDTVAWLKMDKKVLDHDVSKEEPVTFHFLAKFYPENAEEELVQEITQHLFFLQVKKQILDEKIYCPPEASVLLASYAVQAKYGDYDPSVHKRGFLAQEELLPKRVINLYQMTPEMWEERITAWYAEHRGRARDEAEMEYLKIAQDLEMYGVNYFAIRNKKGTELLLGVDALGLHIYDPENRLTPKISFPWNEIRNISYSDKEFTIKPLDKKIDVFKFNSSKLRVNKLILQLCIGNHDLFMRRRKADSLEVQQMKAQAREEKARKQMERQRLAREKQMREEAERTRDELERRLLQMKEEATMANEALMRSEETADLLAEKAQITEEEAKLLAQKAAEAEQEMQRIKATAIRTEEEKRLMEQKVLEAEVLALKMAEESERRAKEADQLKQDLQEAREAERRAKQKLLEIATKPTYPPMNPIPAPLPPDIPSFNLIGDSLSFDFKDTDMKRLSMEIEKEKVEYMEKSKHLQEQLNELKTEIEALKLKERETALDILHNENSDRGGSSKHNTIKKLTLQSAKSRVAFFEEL

[3] = target: T5, GST-NF2 C-terminal half (342-595 aa) (UniProt P35240 342-595); experiment: as above
T5 sequence (looked up): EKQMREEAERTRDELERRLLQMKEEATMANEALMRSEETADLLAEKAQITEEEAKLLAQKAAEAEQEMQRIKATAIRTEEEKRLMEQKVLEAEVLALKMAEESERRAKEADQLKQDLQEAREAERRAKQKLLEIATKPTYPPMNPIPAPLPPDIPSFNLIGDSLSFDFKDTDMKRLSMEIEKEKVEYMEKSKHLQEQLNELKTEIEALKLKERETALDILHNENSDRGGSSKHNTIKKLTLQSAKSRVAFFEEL

[4] = target: B1; experiment: pull-down; in vitro competitive binding assay: YAP-TEAD4 complex on GST-YAP with a dose addition of NF2; SDS-PAGE
[5] = target: B1; experiment: pull-down; GST-NF2 (full length, truncations) bound to GST resin in PBS 1 h at 4 °C, incubated with purified SUMO-TEAD4 in PBS 1 h at 4 °C, washed four times; SDS-PAGE and anti-6xHis blot; in Figure 2C with or without co-incubated FERM domain

Binder: B1
binding result (MBP-NF2 (18-595) WT): binds
binding result (MBP-NF2 A585W mutant): binds
binding result [1]: binds
binding result [2]: binds
binding result [3]: binds

B2: GST-YAP 47-131 (domain or fragment, UniProt P46937 47-131, looked up)
chain: APPAGHQIVHVRGDSETDLEALFNAVMNPKTANVPQTVPMRLRKLPDSFFKPPEPKSHSRQASTDAGTAGALTPQHVRAHSSPAS
notes: YAP (Yes-associated protein), residues 47-131
binding result [4]: binds

Binder: KLKERETALDILHNENSDRGGSSKHNTIKKLTLQSAKSRVAFFEEL (domain or fragment, UniProt P35240 550-595, looked up, also called C-terminal tail) [GST-NF2 tail region (C-tail, 550-595 aa)]
binding result [5]: binds

Second part, the binder after the results:

binding result [5]: binds
B3: GST-NF2-507-595 WT (domain or fragment, UniProt P35240 507-595, looked up)
chain: FDFKDTDMKRLSMEIEKEKVEYMEKSKHLQEQLNELKTEIEALKLKERETALDILHNENSDRGGSSKHNTIKKLTLQSAKSRVAFFEEL

binding result (MBP-NF2 (18-595) WT): binds
B4: TEAD4-2CS (C335S/C367S), non-palmitoylated mutant of TEAD4-YBD (domain or fragment, human, UniProt Q15561 217-434, looked up)
chain: RSVASSKLWMLEFSAFLEQQQDPDTYNKHLFVHIGQSSPSYSDPYLEAVDIRQIYDKFPEKKGGLKDLFERGPSNAFFLVKFWADLNTNIEDEGSSFYGVSSQYESPENMIITCSTKVSSFGKQVVEKVETEYARYENGHYSYRIHRSPLSEYMINFIHKLKHLPEKYMMNSVLENFTILQVVTNRDTQETLLCIAYVFEVSASEHGAQHHIYRLVKE
notes: TEAD4, human, YBD, residues 217-434 as TEAD4-YBDHis, with C335S and C367S; source: recombinant; not shown: His6, N-terminal, kept
